Assay results from the nanobody polyreactivity screen of Harvey et al. (2022).

Experiment: yeast display, Sf9 membrane polyspecificity reagent, FACS + sequencing; frameworks hold sequencing errors
Summary of the method: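 Galactose induction of a Saccharomyces cerevisiae BJ5465 synthetic nanobody display library ran 36–48 hours. The cells were then stained for 1 hour at 4 °C with 10% biotinylated, detergent-solubilized Sf9 membrane reagent, pulled down on streptavidin microbeads and FACS-sorted into low and high (top ~1%) gates on expression and reagent-binding fluorescence. Labels for polyreactivity follow the gate of origin.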

| Sequence | polyreactivity (PSR sort gate) |
| --- | --- |
| QVQLVESGGGLVQAGGSLRLSCAASGRTFQVNSMGWYRQAPGKERELVAALTKRGGSTSYADSVKGRFTFSRDNANNTFYLQMNSLIPEDTAVYYCNVDYWGQGTQVTLSS | low polyreactivity |
| QVQLVESGGGLVQAGGSLRLSCAASGRTFQVNTMGWYRQAPGKERELVAAISSAGRTYYADSVKGRFTISRDNAQNTVYLQMNSLKPEDTAVYYCAAAWSYSYWKARYGYWGQGTQVTVSS | high polyreactivity |
| QVQLVESGGGLVQAGGSLRLSCAASGRTFQVYTMGWYRQAPGKERELVAAISRSGGSTYYADSVKGRFTISRDNAKNTVYLQMNSLKPEDTAVYYCAAVPGWLTSRYYYWGQGTQVTVSS | high polyreactivity |
| QVQLVESGGGLVQAGGSLRLSCAASGRTFQWYAMGWYRQAPGKERELVAAISWGGGRTYYADSVKGRFTISRDNAKNTVYLQMNSLKPEDTAVYYCAASYRKLPDKKRYGYWGQGTQVTVSS | high polyreactivity |
| QVQLVESGGGLVQAGGSLRLSCAASGRTFQWYAMGWYRQAPGKERELVAAISYNGDSTYYADSVKGRFTISRDNAKNTVYLQMNSLKPEDTAVYYCAATPYPYYGYDYWGQGTQVTVSS | high polyreactivity |
| QVQLVESGGGLVQAGGSLRLSCAASGRTFQYNAMGWYRQAPGKERELVAVISRGGRTNYADSVKGRFTISRDNAKNTVYLQMNSLKPEDTAVYYCAADWYTPQGVGLDYWGQGTQVTVSS | low polyreactivity |
| QVQLVESGGGLVQAGGSLRLSCAASGRTFRAYALGWYRQAPGKERELVAAITSGGSTKYADSVKGRFTISRDNAKNTVYLQMNSLKPEDTAVYYCNARVRVRLGRNWSSYYYWGQGTQVTVSS | high polyreactivity |
| QVQLVESGGGLVQAGGSLRLSCAASGRTFRAYVMGWYRQAPGKERELVAAISGRGGSTYYADSVKGRFTSSRDNAKNTVYLQMNSLKPEDTAVYYCNAVQLSQRPHDYWGQGTQVTVSS | high polyreactivity |
| QVQLVESGGGLVQAGGSLRLSCAASGRTFRENAMGSSRPAPGKERELVAAIRRSGGRTYYADSVKGRFTISRDNAKNTVYLQMHSLKPEDTAVSDCIAVADGYAFRRPYVTYYYWGQGTQVTVSS | low polyreactivity |
| QVQLVESGGGLVQAGGSLRLSCAASGRTFRENAMGWYRPAPGKERELVAAISWRAGSTYYADSVKGRFTISRDNAKNTVYLQMNSLKPEDTAVYYCAAKYTVSFYLWGTFNYWGQGTQVTVSS | high polyreactivity |
| QVQLVESGGGLVQAGGSLRLSCAASGRTFRFNAMGWYRQAPGKERELVAAISFRGGSTYYADSVKGRFTISRDNAKNTVYLQMNSLKPEHTAVYYCAARARTGTYRDMYYWGQGTQVTVSS | high polyreactivity |
| QVQLVESGGGLVQAGGSLRLSCAASGRTFRFYAMGWSRQAPGKERELGAAITGSGGSTYYADSVKGRFTISRDNAKNTVYLQMNCLKPEDTAVYYCAASRWREYHASKMDYWGQGTQVTVSS | low polyreactivity |
| QVQLVESGGGLVQAGGSLRLSCAASGRTFRGNVMGWYRQAPGKEREFVAAITKSDGSTYYADSVKGRFTISRDIAKNTVYLQMNSLNPEDTAVDYCAARTARTGWPWFRFDYWGQGTQVTVSS | low polyreactivity |
| QVQLVESGGGLVQAGGSLRLSCAASGRTFRGNVMGWYRQATGKEREFVAAITRSGSNTYYADSVKGRFTISRDYAKTTVYLQMNSLKPEDTAVYDCAKSVLLGYKRHDSWGQGTQVTVSS | high polyreactivity |
| QVQLVESGGGLVQAGGSLRLSCAASGRTFRGYVMGWYRQAPGKERELVAAISKSGGSTYYADSVKGRFTISRDIAKNTVYLQMNSLKPEDTAVYYCNALPRTQYDYWGQGTQVTVSS | low polyreactivity |
| QVQLVESGGGLVQAGGSLRLSCAASGRTFRHYAMAWYRQAPGKERELVASIRWNGASTNYADSVKGRFTISRDNAKNTVYLQMNSLKPEDTAVYYCNARYLFYSGYVYWGQGTQVTVSS | high polyreactivity |
| QVQLVESGGGLVQAGGSLRLSCAASGRTFRINAMGCYRQAPGKERELVAAITSGGRTNYADSVKGRFTISRDNAKNTVYLQMNSLKPEDTAVYYCAAERTPSYRAYDYWGQGTQVTVSS | low polyreactivity |
